{"source": "paper PMC10144703", "about": "“Molecular Mechanism of Sirtuin 1 Inhibition by Human Immunodeficiency Virus 1 Tat Protein” (Life, 2023)", "key": {"[1]": {"biological_target": "T1, human mini-Sirt1 (aa 183-505-(GGGS)2-641-665) (Homo sapiens, UniProt Q96EB6)", "T1 construct": "aa 183-505-(GGGS)2-641-665; made in house; host or cells: E. coli CodonPlus(DE3)", "T1 sequence (Q96EB6 with tags, fused parts or gaps limits assumed)": "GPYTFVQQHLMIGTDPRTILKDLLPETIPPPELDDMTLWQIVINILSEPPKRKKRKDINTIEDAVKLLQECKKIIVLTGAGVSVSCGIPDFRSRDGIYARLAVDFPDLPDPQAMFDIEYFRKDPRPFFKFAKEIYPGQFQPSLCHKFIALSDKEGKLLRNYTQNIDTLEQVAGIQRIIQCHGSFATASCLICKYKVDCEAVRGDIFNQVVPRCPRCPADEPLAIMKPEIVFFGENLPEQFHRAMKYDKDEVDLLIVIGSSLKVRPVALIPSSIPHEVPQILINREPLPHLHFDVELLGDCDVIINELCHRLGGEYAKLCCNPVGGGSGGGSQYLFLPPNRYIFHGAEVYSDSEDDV", "assay": "FdL assay, mini-Sirt1", "format": "biochemical", "details": "FdL-1 at substrate Km, 15% (v/v) DMSO, n = 3", "source_text": "(§1) A human mini-Sirt1 construct (aa 183-505-(GGGS)2-641-665), as described in [27], was generated in a modified pET-19b with a TEV cleavage site. This construct and human full-length Sirt1 (fl-Sirt1) in pET-15b, Sirt1-(183-664) and Sirt1-(214-664) in pET-15b, mini-Sirt1-∆SBD (aa 214-505-(GGGS)2-641-665) and mini-Sirt1-∆ESA (aa 183–505) in a modified pET-19b with TEV cleavage site, Sirt2-(43-356) in a modified pET-19b with a His6-Sumo tag, Sirt3-(93-399) in a modified pET-32a with Trx-His6 tag and TEV cleavage site, hSirt3-(118-399) in pVFT3S (Sungkyunkwan University, Seoul, Republic of Korea) with His6-Trx tag and TEV cleavage site, Sirt5-(34-302) in pET-151/D-TOPO, and Sirt6-(1-355) in pQE80L.1 were purified as described. Shortly, proteins were expressed at 20 °C (mini-Sirt1 constructs at 16 °C) in E. coli CodonPlus(DE3), cell lysates were cleared by centrifugation, and proteins were purified via affinity chromatography using a nickel NTA column. After digestion with thrombin or TEV protease, proteins were re-run over the nickel NTA column, pooled, and concentrated. The samples were, then, subjected either directly to size exclusion chromatography in 50 mM Tris/HCl, pH 8.0, 150 mM NaCl, 1 mM TCEP, or to an ion exchange chromatography followed by size exclusion chromatography. Purified proteins (yield 1—4 mg/L expression culture) were concentrated to 12–18 mg/mL and shock frozen for storage at −80 °C.\n(§2) For sirtuin deacetylation activity measurements, we used two well-characterized assays, a coupled enzymatic assay, and the so-called FdL assay, respectively.\nKm values for FdL-1 were determined in the presence of 3 mM NAD^+ and Km values for NAD^+ in presence of 0.5 mM FdL-1 peptide. […] Reactions were incubated for 20 min, followed by a 1:1 addition of developer (2 mM NAM and 10 mg/mL trypsin in assay buffer). After incubation for 45 min at room temperature, fluorescence was measured with a FluoDia T70 (Photon Technology International Inc., Birmingham, NJ, USA) with an excitation wavelength of 365 nm and emission wavelength of 465 nm. […]"}, "[2]": {"biological_target": "T2, human full-length Sirt1 (fl-Sirt1) (Homo sapiens, UniProt Q96EB6)", "T2 construct": "human full-length Sirt1 (fl-Sirt1) in pET-15b; made in house; host or cells: E. coli CodonPlus(DE3)", "T2 sequence (Q96EB6 1-747)": "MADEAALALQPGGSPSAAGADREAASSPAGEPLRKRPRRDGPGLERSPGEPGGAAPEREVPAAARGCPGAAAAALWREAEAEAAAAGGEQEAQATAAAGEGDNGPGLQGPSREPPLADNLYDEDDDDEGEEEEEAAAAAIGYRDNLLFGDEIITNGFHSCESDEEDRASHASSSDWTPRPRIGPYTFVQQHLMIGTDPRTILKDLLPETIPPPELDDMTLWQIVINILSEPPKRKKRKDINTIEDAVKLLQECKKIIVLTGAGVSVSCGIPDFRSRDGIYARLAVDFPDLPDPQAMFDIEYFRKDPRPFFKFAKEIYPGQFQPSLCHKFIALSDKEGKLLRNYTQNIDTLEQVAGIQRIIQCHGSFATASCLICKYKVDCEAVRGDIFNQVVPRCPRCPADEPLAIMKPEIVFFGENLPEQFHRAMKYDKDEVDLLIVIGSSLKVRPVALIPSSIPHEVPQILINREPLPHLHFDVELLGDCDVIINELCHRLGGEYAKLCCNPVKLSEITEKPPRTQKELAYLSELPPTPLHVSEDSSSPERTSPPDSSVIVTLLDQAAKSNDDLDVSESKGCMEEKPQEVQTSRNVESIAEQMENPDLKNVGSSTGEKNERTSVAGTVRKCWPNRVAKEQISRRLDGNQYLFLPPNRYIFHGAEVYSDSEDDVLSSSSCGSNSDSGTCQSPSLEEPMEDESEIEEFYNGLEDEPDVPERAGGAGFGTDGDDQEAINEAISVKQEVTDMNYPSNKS", "assay": "Continuous coupled enzymatic sirtuin activity assay, fl-Sirt1", "format": "biochemical", "details": "coupled-enzyme assay, n = 2", "source_text": "A human mini-Sirt1 construct (aa 183-505-(GGGS)2-641-665), as described in [27], was generated in a modified pET-19b with a TEV cleavage site. This construct and human full-length Sirt1 (fl-Sirt1) in pET-15b, Sirt1-(183-664) and Sirt1-(214-664) in pET-15b, mini-Sirt1-∆SBD (aa 214-505-(GGGS)2-641-665) and mini-Sirt1-∆ESA (aa 183–505) in a modified pET-19b with TEV cleavage site, Sirt2-(43-356) in a modified pET-19b with a His6-Sumo tag, Sirt3-(93-399) in a modified pET-32a with Trx-His6 tag and TEV cleavage site, hSirt3-(118-399) in pVFT3S (Sungkyunkwan University, Seoul, Republic of Korea) with His6-Trx tag and TEV cleavage site, Sirt5-(34-302) in pET-151/D-TOPO, and Sirt6-(1-355) in pQE80L.1 were purified as described. […]\nContinuous coupled enzymatic sirtuin activity assays were conducted as described. […] Reactions were monitored for 1 h at room temperature by absorption spectroscopy at 340 nm in a UV/vis plate reader (BioTek). The slope for the linear range (typically 5–25 min) was evaluated after background correction with measurements without NAD^+. Additional control reactions were run by either omitting enzyme or omitting peptide substrate to ensure that the signal measured reflects the NAD+-dependent deacetylation activity of the sirtuin."}, "human Sirt3-(118-399)": {"test_system": "human Sirt3-(118-399)", "assay": "Crystal structure of Sirt3/Tat peptide complexes", "format": "binding", "details": "Sirt3/Tat-37–59 at 1.95 Å; Sirt3/ac-Tat-46–54 at 1.65 Å", "experimental": "For crystallization of the Sirt3 and Tat peptide complexes, 10 mg/mL human Sirt3-(118-399) in 20 mM Tris/HCl, pH 8.0, 150 mM NaCl, 5% (v/v) glycerol, 1 mM TCEP were incubated with 2 mM ac-Tat-46-54 or Tat-37-59 (the latter in 10% (v/v) DMSO) for 60 min at 20 °C. Both complexes were crystallized using the sitting-drop vapor-diffusion method at 20 °C with 100 mM MES, pH 6.0, 30% (w/v) PEG 200, 5% (w/v) PEG 3000 as reservoir solution for Sirt3/ac-Tat-46-54 and 100 mM CHES, pH 9.0, 20% (w/v) PEG 8000 for Sirt3/Tat-37-59. Crystals were cryoprotected with the respective reservoir solution supplemented with 25% (v/v) glycerol and flash-frozen in liquid nitrogen.\nDiffraction data were collected at BESSY II, beamline MX14.1 operated by Helmholtz Zentrum Berlin (Berlin, Germany) at 0.9184 Å wavelength. Indexing, scaling, and merging of the Sirt3/ac-Tat-46-54 complex data were performed with XDSAPP [37]. The Sirt3/Tat-37–59 complex data were indexed and integrated with DIALS [38] and further processed with CCP4 programs Rebatch, Pointless, Aimless, and cTruncate, with 5% of the reflections assigned to Rfree with Uniqueify. The complex structures were phased by molecular replacement with PHASER [40] and using a Sirt3/ac-ACS/carba-NAD (PDB ID 4FVT) and a Sirt3/ADPr complex (PDB ID 4BVB), respectively, as a search model. […]"}, "mini-Sirt1": {"biological_target": "T3, mini-Sirt1 (Homo sapiens, UniProt Q96EB6)", "T3 construct": "aa 183-505-(GGGS)2-641-665; made in house; host or cells: E. coli CodonPlus(DE3)", "T3 sequence (Q96EB6 with tags, fused parts or gaps limits assumed)": "T1 sequence (Q96EB6 with tags, fused parts or gaps limits assumed)", "assay": "Deacetylation of ac-Tat-46–54 as substrate by mini-Sirt1", "format": "biochemical", "experimental": "as §2\nContinuous coupled enzymatic sirtuin activity assays were conducted as described. […] For assays with Tat peptides, 5% (v/v) DMSO was added to all reactions to enhance peptide solubility. Reactions were monitored for 1 h at room temperature by absorption spectroscopy at 340 nm in a UV/vis plate reader (BioTek). The slope for the linear range (typically 5–25 min) was evaluated after background correction with measurements without NAD^+. Additional control reactions were run by either omitting enzyme or omitting peptide substrate to ensure that the signal measured reflects the NAD+-dependent deacetylation activity of the sirtuin."}, "[3]": {"biological_target": "T2, human full-length Sirt1 (fl-Sirt1)", "assay": "FdL deacetylation assay, fl-Sirt1", "format": "biochemical", "details": "FdL assay, 100 µM FdL-1, 500 µM NAD^+, pH 7.8, 37 °C; n = 2; read-out: IC50, fl-Sirt1, truncated Tat-Cys^− constructs", "source_text": "as §1, with “Purified proteins (yield 1—4 mg/L expression culture) were concentrated to 12–18 mg/mL and shock frozen for storage at −80 °C.” left out"}, "Sirt1": {"test_system": "Sirt1", "details": "FdL assay, wildtype Tat; ref [9]; read-out: IC50, Sirt1 (previously reported); cited from earlier work"}}, "note": "Where no end group is shown, it is not given here.", "data": [{"substance": "SYGRKKRRQ [Tat-46–54]", "values": [{"measurement": "IC50", "setting": "[1]; 37 °C, pH 7.8, ± s.d., read-out: IC50 (FdL assay), mini-Sirt1, non-acetylated Tat-46–54", "value": "131 ± 88.1", "unit": "µM"}]}, {"substance": "Tat-49–60: synthetic non-acetylated Tat fragment, residues 49–60 (RKKRRQRRRPSQ)", "values": [{"measurement": "inhibition of mini-Sirt1 by synthetic Tat peptides (Figure 2F)", "setting": "[1]; dose-dependent", "value": "weaker inhibition"}, {"measurement": "inhibition of mini-Sirt1, titration (Figure 2G)", "setting": "[1]; titration", "value": "neither Tat-31–49 nor Tat-49–60 alone was sufficient for significant inhibition"}]}, {"substance": "ac-Tat-46–54: Lys50-acetylated Tat-46–54 peptide (SYGRK(Ac)KRRQ)", "values": [{"measurement": "effect on fl-Sirt1 activity upon addition to assay containing p53-peptide", "setting": "[2]; 100 µM ac-p53 as basal substrate", "value": "expected increase of activity"}, {"measurement": "onset of inhibition upon addition to assay containing p53-peptide", "setting": "[2]; fl-Sirt1, 100 µM ac-p53 as basal substrate", "value": "no indications of instant or delayed onset of inhibition"}, {"measurement": "binding site/mode in Sirt3 crystal structure", "setting": "human Sirt3-(118-399)", "value": "inserted in the substrate binding groove in the typical, β-sheet-like fashion"}, {"measurement": "Sirt1-dependent deacetylation (as substrate)", "setting": "mini-Sirt1; Michaelis–Menten kinetics, mini-Sirt1, compared with ac-p53-Lys382, n = 3", "value": "efficient Sirt1-dependent deacetylation, even slightly more efficient than for its standard substrate peptide ac-p53-Lys382"}, {"measurement": "inhibitory effects at later time points of the deacetylation assay", "setting": "mini-Sirt1; time-course for deacetylation by mini-Sirt1, n = 3", "value": "did not observe any inhibitory effects at later time points"}]}, {"substance": "residues 21–63 of Tat-Cys^−: construct also lacking the N-terminal region from aa 1–20 (ASNRAHAKKSAYHSQVAFITKGLGISYGRKKRRQRRRPSQGGQ)", "values": [{"measurement": "IC50", "setting": "[3]", "value": "~30", "unit": "µM"}]}, {"substance": "wildtype Tat: HIV1 transactivator of transcription protein, wildtype, as previously reported", "values": [{"measurement": "IC50", "setting": "Sirt1", "value": 3.5, "unit": "µM"}]}]}
